Experimental findings from patent publication US20170158747A1 are described below.

Holding throughout (assay): cell-based or functional assay
In experiment [1] the target is cynomolgus monkey IL10 receptor on cynomolgus whole blood cells (cynomolgus monkey).
Experiment [2] concerns the target human IL10 receptor (IL10R1/R2 receptor complex) on human whole blood cells (human) (UniProt Q13651).
For experiment [3], the target named is mouse IL10 receptor on mouse cells (whole blood, colon) (mouse) (UniProt Q61727).
mouse IL10 receptor on mouse cells (whole blood, colon) (mouse), sequence (Q61727 17-575, chain 1 of 2): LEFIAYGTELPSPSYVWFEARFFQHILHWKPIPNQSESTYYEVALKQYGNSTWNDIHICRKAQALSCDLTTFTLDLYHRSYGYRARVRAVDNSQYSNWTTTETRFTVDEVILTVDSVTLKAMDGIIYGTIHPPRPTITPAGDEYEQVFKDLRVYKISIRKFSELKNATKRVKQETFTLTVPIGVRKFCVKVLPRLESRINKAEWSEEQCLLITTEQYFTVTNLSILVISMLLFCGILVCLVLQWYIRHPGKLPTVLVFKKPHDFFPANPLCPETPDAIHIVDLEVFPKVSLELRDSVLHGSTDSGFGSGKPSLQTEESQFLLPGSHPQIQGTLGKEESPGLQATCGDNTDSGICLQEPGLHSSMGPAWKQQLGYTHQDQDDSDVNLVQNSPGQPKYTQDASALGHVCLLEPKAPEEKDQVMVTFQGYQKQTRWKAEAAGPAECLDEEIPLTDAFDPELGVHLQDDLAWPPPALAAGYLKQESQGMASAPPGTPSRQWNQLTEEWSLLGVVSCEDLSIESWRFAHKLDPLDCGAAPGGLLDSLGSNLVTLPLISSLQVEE
mouse IL10 receptor on mouse cells (whole blood, colon) (mouse), sequence (Q61190 20-349, chain 2 of 2, further chain): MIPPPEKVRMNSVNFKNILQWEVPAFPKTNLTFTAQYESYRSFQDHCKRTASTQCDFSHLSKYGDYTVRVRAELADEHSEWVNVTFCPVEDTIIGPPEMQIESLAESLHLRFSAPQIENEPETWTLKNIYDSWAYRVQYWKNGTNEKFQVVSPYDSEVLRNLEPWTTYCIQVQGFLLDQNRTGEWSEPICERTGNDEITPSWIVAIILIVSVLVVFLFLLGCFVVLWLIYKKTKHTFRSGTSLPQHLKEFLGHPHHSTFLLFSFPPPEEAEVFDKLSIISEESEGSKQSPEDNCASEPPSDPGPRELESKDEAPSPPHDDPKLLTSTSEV

human IL10 receptor (IL10R1/R2 receptor complex) on human whole blood cells (human), sequence (Q13651 22-578, chain 1 of 2): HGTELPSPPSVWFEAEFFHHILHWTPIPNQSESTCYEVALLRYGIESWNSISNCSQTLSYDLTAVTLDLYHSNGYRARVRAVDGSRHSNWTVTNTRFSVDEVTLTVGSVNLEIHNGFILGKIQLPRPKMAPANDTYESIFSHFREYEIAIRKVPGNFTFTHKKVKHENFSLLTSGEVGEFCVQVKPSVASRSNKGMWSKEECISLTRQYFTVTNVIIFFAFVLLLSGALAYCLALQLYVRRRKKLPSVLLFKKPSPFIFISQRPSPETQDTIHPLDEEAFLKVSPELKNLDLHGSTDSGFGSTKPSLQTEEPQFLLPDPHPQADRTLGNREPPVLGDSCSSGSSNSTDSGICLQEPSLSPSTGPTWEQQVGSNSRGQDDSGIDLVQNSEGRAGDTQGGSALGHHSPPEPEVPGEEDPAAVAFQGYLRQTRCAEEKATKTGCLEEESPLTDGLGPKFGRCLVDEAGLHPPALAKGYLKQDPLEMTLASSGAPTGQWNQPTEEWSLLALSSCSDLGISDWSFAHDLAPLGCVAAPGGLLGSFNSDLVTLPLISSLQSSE
human IL10 receptor (IL10R1/R2 receptor complex) on human whole blood cells (human), sequence (Q08334 20-325, chain 2 of 2, further chain): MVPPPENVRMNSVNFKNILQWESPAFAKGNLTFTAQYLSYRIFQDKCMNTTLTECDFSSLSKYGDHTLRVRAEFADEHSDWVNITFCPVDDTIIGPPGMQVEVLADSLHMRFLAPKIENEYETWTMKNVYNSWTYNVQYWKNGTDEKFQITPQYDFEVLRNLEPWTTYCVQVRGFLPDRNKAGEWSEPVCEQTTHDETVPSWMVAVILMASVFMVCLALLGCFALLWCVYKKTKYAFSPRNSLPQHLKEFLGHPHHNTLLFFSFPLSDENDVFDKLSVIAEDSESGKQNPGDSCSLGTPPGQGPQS

Take “recombinant human IL10 (from UniProt P22301 19-178) (ligand)”: in experiment [1], the IC30, inhibition of LPS-induced TNFα production, ex vivo cynomolgus whole blood is 0.44 pM; the IC50, inhibition of LPS-induced TNFα production, ex vivo cynomolgus whole blood is 0.65 pM; the IC90, inhibition of LPS-induced TNFα production, ex vivo cynomolgus whole blood was 1.9 pM. In experiment [2], this substance returned an IC30, inhibition of LPS-induced TNFα production, ex vivo human whole blood of 1.3 pM; an IC50, inhibition of LPS-induced TNFα production, ex vivo human whole blood of 2.8 pM; an IC90, inhibition of LPS-induced TNFα production, ex vivo human whole blood of 22.8 pM. In experiment [3], this substance showed an IC30, inhibition of LPS-induced TNFα production, ex vivo mouse whole blood of 0.57 pM; an IC50, inhibition of LPS-induced TNFα production, ex vivo mouse whole blood of 1.7 pM; an IC90, inhibition of LPS-induced TNFα production, ex vivo mouse whole blood of 15 pM.
